From patent US20240116985A1 (published 2024)
Starred links: 1 amine or outer side, 2 acyl side, 3 side chain; linkers in the order of their positions; H or OH if unused. Positions of bridges follow the written chain, without caps; N, C: chain ends. Non-standard residues stand in square brackets, D forms with d. Primed or numbered codes have the meaning given here. PyrS2″ = (S)-3-amino-1-((pent-4-en-1-yloxy)carbonyl)pyrrolidine-3-carboxylic acid (stapling residue), C=CCCCOC(=O)N1CC[C@@](N[*:1])(C(=O)[*:2])C1; B5(4) = 2,2-bis(4-pentenyl)glycine = 2-amino-2-(pent-4-en-1-yl)hept-6-enoic acid (stitching residue), C=CCCCC(CCCC=C)(N[*:1])C(=O)[*:2]; B5(3) = 2,2-bis(4-pentenyl)glycine (stitching residue), C=CCCCC(CCCC=C)(N[*:1])C(=O)[*:2]; Phe(3-COOH) = N[C@@H](Cc1cccc(C(=O)O)c1)C(=O)O; 2F3MeF = Cc1cccc(C[C@H](N[*:1])C(=O)[*:2])c1F; Phe(2-CF3) = N[C@@H](Cc1ccccc1C(F)(F)F)C(=O)O; AcLys = CC(=O)NCCCC[C@H](N[*:1])C(=O)[*:2]; Phe(2-Cl) = N[C@@H](Cc1ccccc1Cl)C(=O)O; Met(O2) = CS(=O)(=O)CC[C@H](N)C(=O)O; Bta = N[C@@H](Cc1csc2ccccc12)C(=O)O; Lys(iPr) = CC(C)NCCCC[C@H](N)C(=O)O; αAllylPro = C=CC[C@@]1(C(=O)O)CCCN1; tBuAla = CC(C)(C)C[C@H](N)C(=O)O; 3Thi = N[C@@H](Cc1ccsc1)C(=O)O; Cha = N[C@@H](CC1CCCCC1)C(=O)O; PyrS2(4) = not defined here; hSer = N[C@@H](CCO)C(=O)O; Nle = CCCC[C@H](N)C(=O)O

B1: I-2053 (peptide)
peptide: Ac-[αAllylPro]D[tBuAla][B5(3)]D[Phe(3-COOH)]QAFA[PyrS2(4)][3Thi][Bta]A-NH2
modifications: staple 1-4, 4-11; reading uncertain; also: printed as Ac-PL3-Asp-Npg-B5-Asp-3COOHF-Gln-Ala-Phe-Ala-PyrS2-3Thi-BztA-Ala-NH2
B2: I-2055 (peptide)
peptide: Ac-[αAllylPro]D[tBuAla][B5(4)]D[Phe(3-COOH)]QAFL[PyrS2(4)][3Thi][Bta]V-NH2
modifications: staple 1-4, 4-11; reading uncertain; also: printed as Ac-PL3-Asp-Npg-B5-Asp-3COOHF-Gln-Ala-Phe-Leu-PyrS2-3Thi-BztA-Val-NH2
B3: I-2539 (peptide)
peptide: Ac-[αAllylPro]D[tBuAla][B5(4)]D[Phe(3-COOH)]AAF[AcLys][PyrS2″][2F3MeF][Bta][Me2Gln]-NH2
modifications: staple 1-4, 4-11; not fully specified; printed as Ac-PL3-Asp-Npg-B5-Asp-3COOHF-Ala-Ala-Phe-AcLys-PyrS2-2F3MeF-BztA-Me2Gln-NH2
B4: I-2537 (peptide)
peptide: Ac-[αAllylPro]D[tBuAla][B5(4)]D[Phe(3-COOH)]AAF[MorphGln][PyrS2″][2F3MeF][Bta][Me2Gln]-NH2
modifications: staple 1-4, 4-11; not fully specified; printed as Ac-PL3-Asp-Npg-B5-Asp-3COOHF-Ala-Ala-Phe-MorphGln-PyrS2-2F3MeF-BztA-Me2Gln-NH2
B5: I-2536 (peptide)
peptide: Ac-[αAllylPro]D[tBuAla][B5(4)]D[Phe(3-COOH)]AAF[Me2Gln][PyrS2″][2F3MeF][Bta][Me2Gln]-NH2
modifications: staple 1-4, 4-11; not fully specified; printed as Ac-PL3-Asp-Npg-B5-Asp-3COOHF-Ala-Ala-Phe-Me2Gln-PyrS2-2F3MeF-BztA-Me2Gln-NH2
B6: I-2538 (peptide)
peptide: Ac-[αAllylPro]D[tBuAla][B5(4)]D[Phe(3-COOH)]AAF[MorphGln][PyrS2″][Phe(2-CF3)][Bta][Me2Gln]-NH2
modifications: staple 1-4, 4-11; not fully specified; printed as Ac-PL3-Asp-Npg-B5-Asp-3COOHF-Ala-Ala-Phe-MorphGln-PyrS2-2F3MeF-BztA-Me2Gln-NH2
B7: I-2535 (peptide)
peptide: Ac-[αAllylPro]D[tBuAla][B5(4)]D[Phe(3-COOH)]AAF[Me2Gln][PyrS2″][2F3MeF][Bta][Me2Gln]-NH2
modifications: staple 1-4, 4-11; not fully specified; printed as Ac-PL3-Asp-Npg-B5-Asp-3COOHF-Ala-Ala-Phe-Me2Gln-PyrS2-2F3MeF-BztA-Me2Gln-NH2

What follows are binders tested against T1, B-cat-Halo (beta-catenin HaloTag construct expressed in HEK293 cells) (UniProt P35222 1-781) (assay: cell-based or functional assay).
T1 sequence (looked up): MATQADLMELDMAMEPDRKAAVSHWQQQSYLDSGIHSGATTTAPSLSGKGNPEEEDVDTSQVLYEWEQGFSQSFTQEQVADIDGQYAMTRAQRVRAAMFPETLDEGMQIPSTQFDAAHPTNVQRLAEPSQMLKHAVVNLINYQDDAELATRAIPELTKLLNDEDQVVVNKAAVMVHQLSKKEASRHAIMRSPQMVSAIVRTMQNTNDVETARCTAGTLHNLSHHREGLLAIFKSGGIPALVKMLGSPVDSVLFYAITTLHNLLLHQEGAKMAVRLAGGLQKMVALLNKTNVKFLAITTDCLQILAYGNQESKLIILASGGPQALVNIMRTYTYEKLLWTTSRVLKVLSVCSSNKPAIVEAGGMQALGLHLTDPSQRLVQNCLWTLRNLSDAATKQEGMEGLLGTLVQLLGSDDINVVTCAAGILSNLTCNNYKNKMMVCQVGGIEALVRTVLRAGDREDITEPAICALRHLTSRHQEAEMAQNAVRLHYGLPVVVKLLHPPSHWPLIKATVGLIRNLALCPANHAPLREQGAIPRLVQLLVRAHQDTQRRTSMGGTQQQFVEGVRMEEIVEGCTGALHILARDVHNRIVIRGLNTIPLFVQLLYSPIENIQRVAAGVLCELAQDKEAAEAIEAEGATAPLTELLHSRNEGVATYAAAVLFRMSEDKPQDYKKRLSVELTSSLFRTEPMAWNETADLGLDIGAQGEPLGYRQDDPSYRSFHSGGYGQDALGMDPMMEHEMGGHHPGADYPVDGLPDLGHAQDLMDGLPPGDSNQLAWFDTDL

Point of comparison: B1, “NanoBRET Abs IC50” value 5 µM. Against it:
- Ac-[αAllylPro]D[tBuAla][B5(3)]D[Phe(3-COOH)]QAFF[PyrS2″][3Thi][Bta]A-NH2 (staple 1-4, 4-11) [I-2052] — within 1.5-fold, 6 µM
- Ac-[αAllylPro]D[tBuAla][B5(4)]D[Phe(3-COOH)]AAFL[PyrS2″][Phe(2-Cl)][Bta][Met(O2)]-NH2 (staple 1-4, 4-11) [I-2062] — 1.7-fold lower, 3 µM
- Ac-[αAllylPro]N[Cha][B5(4)]DQ[Lys(iPr)]AFN[PyrS2″]F[Bta]A-NH2 (staple 1-4, 4-11) [I-2065] — higher, > 20 µM
- Ac-[αAllylPro]N[Cha][B5(4)]DQHAFN[PyrS2″]F[Bta]A-NH2 (staple 1-4, 4-11) [I-2069] — higher, > 20 µM
- Ac-[αAllylPro]D[tBuAla][B5(4)]D[Phe(3-COOH)]TAFL[PyrS2″][Phe(2-CF3)][Bta]A-NH2 (staple 1-4, 4-11) [I-2060] — 1.9-fold higher, 9.6 µM
- Ac-[αAllylPro]N[Cha][B5(4)]DQ[Lys(iPr)]AFN[PyrS2″]F[Bta]F-NH2 (staple 1-4, 4-11) [I-2068] — higher, > 20 µM
- Ac-[αAllylPro]D[tBuAla][B5(4)]D[Phe(3-COOH)]AAFL[PyrS2″][Phe(2-CF3)][Bta][Met(O2)]-NH2 (staple 1-4, 4-11) [I-2063] — within 1.5-fold, 3.5 µM
- Ac-[αAllylPro]N[Cha][B5(4)]DQQAFN[PyrS2″]F[Bta]A-NH2 (staple 1-4, 4-11) [I-2070] — higher, > 20 µM
- Ac-[αAllylPro]D[tBuAla][B5(4)]D[Phe(3-COOH)][Met(O2)]AFL[PyrS2″][3Thi][Bta]A-NH2 (staple 1-4, 4-11) [I-2064] — 2.4-fold higher, 11.8 µM
- Ac-[αAllylPro]N[Cha][B5(4)]DQQAFN[PyrS2″]F[Bta][hSer]-NH2 (staple 1-4, 4-11) [I-2067] — higher, > 20 µM
- Ac-[αAllylPro]D[tBuAla][B5(4)]D[Phe(3-COOH)]QAFL[PyrS2″][3Thi][Bta]L-NH2 (staple 1-4, 4-11) [I-2056] — within 1.5-fold, 6.5 µM
- B2 — 2.1-fold higher, 10.5 µM
- Ac-[αAllylPro]D[tBuAla][B5(4)]D[Phe(3-COOH)]QAFV[PyrS2″][3Thi][Bta]A-NH2 (staple 1-4, 4-11) [I-2054] — 2.1-fold lower, 2.4 µM
- Ac-[αAllylPro]D[tBuAla][B5(4)]D[Phe(3-COOH)]SAFL[PyrS2″][Phe(2-CF3)][Bta]A-NH2 (staple 1-4, 4-11) [I-2059] — within 1.5-fold, 4.8 µM
- Ac-[αAllylPro]D[tBuAla][B5(4)]D[Phe(3-COOH)]NAFL[PyrS2″][Phe(2-CF3)][Bta]A-NH2 (staple 1-4, 4-11) [I-2058] — within 1.5-fold, 3.9 µM
- Ac-[αAllylPro]D[tBuAla][B5(3)]D[Phe(3-COOH)]TAFL[PyrS2″][3Thi][Bta]A-NH2 (staple 1-4, 4-11) [I-2051] — 1.7-fold higher, 8.3 µM

These binders were tested against T2, Bcat-Halo (UniProt P35222 1-781) (assay: cell-based or functional assay).
T2 sequence (looked up): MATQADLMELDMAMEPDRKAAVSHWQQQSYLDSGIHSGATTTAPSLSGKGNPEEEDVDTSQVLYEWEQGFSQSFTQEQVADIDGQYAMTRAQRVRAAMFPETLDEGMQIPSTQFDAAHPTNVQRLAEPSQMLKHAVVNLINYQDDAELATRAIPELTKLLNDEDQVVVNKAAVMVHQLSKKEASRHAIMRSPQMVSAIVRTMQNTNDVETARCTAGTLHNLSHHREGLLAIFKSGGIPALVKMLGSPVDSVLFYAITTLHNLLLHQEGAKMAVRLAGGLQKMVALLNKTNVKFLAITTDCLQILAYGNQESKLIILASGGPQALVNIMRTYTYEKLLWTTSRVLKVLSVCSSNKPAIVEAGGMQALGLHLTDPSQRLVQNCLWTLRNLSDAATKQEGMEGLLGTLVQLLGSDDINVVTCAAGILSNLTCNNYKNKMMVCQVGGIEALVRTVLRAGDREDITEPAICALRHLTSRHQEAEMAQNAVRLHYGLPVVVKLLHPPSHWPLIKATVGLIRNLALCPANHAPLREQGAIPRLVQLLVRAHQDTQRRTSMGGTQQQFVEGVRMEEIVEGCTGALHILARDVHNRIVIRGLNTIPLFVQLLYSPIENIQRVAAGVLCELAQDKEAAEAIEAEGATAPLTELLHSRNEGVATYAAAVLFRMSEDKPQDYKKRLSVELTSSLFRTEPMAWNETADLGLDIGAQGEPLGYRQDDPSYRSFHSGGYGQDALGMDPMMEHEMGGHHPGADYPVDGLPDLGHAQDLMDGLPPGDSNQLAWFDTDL

Point of comparison: Ac-[αAllylPro]D[tBuAla][B5(4)]D[Phe(3-COOH)]AAFF[PyrS2(4)][3Thi][Bta][dA]-NH2 (staple 1-4, 4-11; reading uncertain) [I-2094], “NanoBRET Abs IC50” value 9.7 µM. Against it:
- Ac-[αAllylPro]D[tBuAla][B5(4)]D[Phe(3-COOH)]AAFF[PyrS2″][Phe(2-CF3)][Bta][dQ]-NH2 (staple 1-4, 4-11) [I-2093] — 1.9-fold lower, 5 µM
- Ac-[αAllylPro]D[tBuAla][B5(4)]D[Phe(3-COOH)]AAFF[PyrS2″][2F3MeF][Bta][dA]-NH2 (staple 1-4, 4-11) [I-2095] — within 1.5-fold, 10.5 µM

The binders below were run against T3, B-cat-Halo (UniProt P35222 1-781, HaloTag NanoBRET 618 Ligand bound in the assay) (assay: cell-based or functional assay).
T3 sequence (looked up): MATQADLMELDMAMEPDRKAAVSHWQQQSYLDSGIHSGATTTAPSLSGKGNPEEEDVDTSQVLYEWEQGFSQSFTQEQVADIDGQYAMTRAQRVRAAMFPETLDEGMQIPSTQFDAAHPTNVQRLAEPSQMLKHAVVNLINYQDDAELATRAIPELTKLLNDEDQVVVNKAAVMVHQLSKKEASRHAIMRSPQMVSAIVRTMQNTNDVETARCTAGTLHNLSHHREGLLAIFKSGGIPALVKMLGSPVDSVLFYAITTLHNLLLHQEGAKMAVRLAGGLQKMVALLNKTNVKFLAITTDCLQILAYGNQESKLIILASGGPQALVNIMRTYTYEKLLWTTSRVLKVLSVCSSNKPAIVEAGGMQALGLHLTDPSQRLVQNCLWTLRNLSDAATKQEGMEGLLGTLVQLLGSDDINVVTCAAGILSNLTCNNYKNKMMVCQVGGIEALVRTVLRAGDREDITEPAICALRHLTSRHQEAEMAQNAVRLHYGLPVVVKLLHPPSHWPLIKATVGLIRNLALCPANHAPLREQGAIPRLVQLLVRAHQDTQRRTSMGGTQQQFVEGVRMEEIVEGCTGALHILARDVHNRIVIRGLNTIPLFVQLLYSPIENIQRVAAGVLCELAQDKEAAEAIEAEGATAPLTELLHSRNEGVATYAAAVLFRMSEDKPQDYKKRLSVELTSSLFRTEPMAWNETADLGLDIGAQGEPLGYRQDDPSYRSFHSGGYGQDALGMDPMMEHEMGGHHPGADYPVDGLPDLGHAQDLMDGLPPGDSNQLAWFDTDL

Point of comparison: B6, “NanoBRET Abs IC50” value 3.5 µM. Against it:
- B3 — within 1.5-fold, 3.6 µM
- Ac-[αAllylPro]D[tBuAla][B5(4)]D[Phe(3-COOH)]AAF[Nle][PyrS2″][2F3MeF][Bta][Me2Gln]-NH2 (staple 1-4, 4-11) [I-2533] — 1.8-fold higher, 6.2 µM
- B4 — within 1.5-fold, 2.9 µM
- Ac-[αAllylPro]D[tBuAla][B5(4)]D[Phe(3-COOH)]AAFF[PyrS2″][Phe(2-CF3)][Bta][Me2Gln]-NH2 (staple 1-4, 4-11) [I-2534] — within 1.5-fold, 4.4 µM
- B5 — within 1.5-fold, 4.5 µM
- B7 — within 1.5-fold, 3.7 µM
